Reference: article PMC3659094

Biological target: human Tyrosine kinase receptor B (TrkB) (human) (UniProt Q16620)
UniProt Q16620, sequence (Q16620 other isoform, or with tags, fused parts or gaps): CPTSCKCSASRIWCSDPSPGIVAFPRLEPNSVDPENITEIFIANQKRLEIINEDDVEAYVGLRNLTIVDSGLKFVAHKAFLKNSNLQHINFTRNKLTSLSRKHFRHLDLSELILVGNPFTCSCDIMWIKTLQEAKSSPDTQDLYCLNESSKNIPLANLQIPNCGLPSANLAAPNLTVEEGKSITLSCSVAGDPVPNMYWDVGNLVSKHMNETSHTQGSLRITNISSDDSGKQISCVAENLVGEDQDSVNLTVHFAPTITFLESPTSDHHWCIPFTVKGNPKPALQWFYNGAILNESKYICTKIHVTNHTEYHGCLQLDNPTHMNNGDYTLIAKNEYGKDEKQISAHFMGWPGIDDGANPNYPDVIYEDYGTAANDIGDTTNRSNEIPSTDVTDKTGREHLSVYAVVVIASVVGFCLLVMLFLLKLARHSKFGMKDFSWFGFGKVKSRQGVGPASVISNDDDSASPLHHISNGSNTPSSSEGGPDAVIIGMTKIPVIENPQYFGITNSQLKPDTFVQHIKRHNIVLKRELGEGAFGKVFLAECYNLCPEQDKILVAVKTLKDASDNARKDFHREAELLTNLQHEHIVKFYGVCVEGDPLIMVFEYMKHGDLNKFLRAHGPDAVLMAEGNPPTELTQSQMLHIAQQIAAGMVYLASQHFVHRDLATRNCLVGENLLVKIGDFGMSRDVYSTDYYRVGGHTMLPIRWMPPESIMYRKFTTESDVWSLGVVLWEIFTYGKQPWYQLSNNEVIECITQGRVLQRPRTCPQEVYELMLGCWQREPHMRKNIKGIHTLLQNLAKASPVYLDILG

EC50 of recruitment of SHC1 to human TrkB in U2OS cells (Pathhunter): 1 nM
EC50 of transcriptional activation of a CRE-luciferase reporter in HEK293 cells expressing human TrkB: 5.2 nM
Substance: brain-derived neurotrophic factor (BDNF) (ligand)
